# Test: yeast display, Sf9 membrane polyspecificity reagent, FACS + sequencing; frameworks hold sequencing errors
# Method in brief: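 After 36–48 hours of galactose induction, yeast (Saccharomyces cerevisiae BJ5465) displaying a synthetic nanobody library were stained at 4 °C for 1 hour with 10% biotinylated, detergent-solubilized Sf9 membrane reagent. Streptavidin microbeads enriched the stained cells before FACS sorting into low and high (top ~1%) gates on anti-HA and streptavidin fluorescence. Each clone's polyreactivity label reflects its gate of origin.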
row,Sequence,polyreactivity (PSR sort gate)
1,QVQLVESGGGLVQAGGSLRLSCAASGIIFVYNAMGWYRQAPGKERELVAGISFIGDSTYYADSVKGRFTISRDNAKNTVYLQMNSLKPEDTAVYYCAADYYLPYWFFVGYDYWGQGTQVTVSS,low polyreactivity
2,QVQLVESGGGLVQAGGSLRLSCSASGITFKRYAMGWYRQAPGTERELVAAITISACSTYYADSVKGRFTNSRDIAKNTVYLQMNSLKPEVTAVYYCAAVSYGSWYYYWGQGTHVTVSS,high polyreactivity
3,QVQLVESGGGLVQAGGSLRLSCAASGLTFFYYAMGWYRQAPGKERELVAGISRSGGSTYYADSVKGRFTISRDNAKNTVYLQMKSLKPEDTAVYYCAKRTLVASYIYREGEYWGQGTQVTVSS,high polyreactivity
4,QVQLVESGGGLVQAGGSLRLSCAASGRIFSFYAMVWSRQAPGKERELVAAISSGGYTYYADSVKGRFTISRDNAKNTVYLQMNSLKPEDTAVYYCATGYRKLSSRYGYWGQGTQVTVSS,high polyreactivity
5,QVQLVESGGGLVQAGGSLRLSCAASGRIFWINALGWYRQAPGKERELVAAISWRGDSTYYADSVKGRFTISRDNAKNTVYLQMNSLKPEDTAVYYCAATWYSWGSEFDYWGQGTQVTVSS,high polyreactivity
6,QVQLVESGGGLVQAGGSLRLRCAASGFTIGYNVMGLYRQAPGKERELVATISWNGARTYYADSVKGRFTISRDNAKNTVYLQMNSLKPEDTAVYYCAARRYYRGEYDYWGQGTQVTVSS,low polyreactivity
7,QVQLVESGGGLVQAGGSLRLSCAASGSTFPYNAMGWYRPAPGKERELVAAISSGGITYYADSVKGRFTISRDNAKNTVYLQMNSLIPEDTAVYYCAATVLGDYEYWGQGTQVTVSS,low polyreactivity
8,QVQLVESGGGLVQAGGSLRLSCAASGYTFAWYTMGWYRQAPGKERELVAAISASGVRTYYADSVKGRFTISRDNAKNTVYLQMNSLKPQDTAVYYCNRVYSTSRITQYEFDYWGQGTQVTVSS,low polyreactivity
9,QVQLVESGGGLVQAGGSLRLSCAASGRTFRTYTMGWYRQAPGKERELVAAITSTGSTYYADSVKGRFTISRDNAKNTVYLQMNSLKPEDTAVYYCAAVYVAVGLVYEKYDYWGQGTQVTVSS,high polyreactivity
10,QVQLQESGGGQVQAGGSLRLSCAASGYISTHYFMGWYRQAPGKDREFVAGISNGSITNYADSVKGRFTISRDNARNTVYLQMNSLKPEDTEVYYGAAYEWTYVRFGYWGQGTQVTVSG,high polyreactivity
11,QVQLEESGGGLVQAGGSLRLSCAASGRTFVPYAMGWYRQAPGKERELVAAINSGGSTYYADSVKGRFTISRDNAKNTVYLQMNSLKPEDTAVYYCAAEYWNSRFSYAYGYWGQGTQVTVSS,high polyreactivity
12,QFQLVESGGGLVQAGGSLRLSCAASGRTFGVYAMGWYRQAPGKERELVAAIRWSGGGTYYADSVKGRFTISRDNAKNTVYLQMNSLKPEDTAVYYCAADSLLVLFDYWGQGTQVTVSA,low polyreactivity
13,QVQLVESGGGLVQAGGSLRLSCAASGRTFRYNPMVWYRQAPGKERELVAAITWSGGSTYYADSVKGRFKISRDNAKNTVYLQMNSLKPEDTAVYYCNRRYYAYDWGQGTQVTVSS,high polyreactivity
14,QVQLVESGGGLVQAGGSLRLSCAASGSIFFYYTMGWYRQAPGKERELVAAITWSGGSTYYADSVKGRFTISRDNAKNTVYLQMNSLKPEDTAVYYCAAGTRLYYYRLNYWGQGTQVTVSS,high polyreactivity
15,QVQLVESGGGLVQAGGSLRLSCAASGSIFKVNTMGWYRQAPGKERELVAAISSSDDSTYYADSVKGRFTISRDNAKNTVYLQMNSLKPEDTAVYYCAADGSSVDSGGINDEYWGQGTQVTVSS,low polyreactivity
16,QVQLVESGGGLVQAGGSLRLSCAASGSTFGRYAMGWYRQAPGKERELVAAIDWSGGSTYYADSVKGRFTISRDNAKNTVYLQMNSLKPEDTAVYYCAAEAYSQYRTPGFDYYYWGQGTQVTVSS,high polyreactivity
17,QVQLVESGGGLVQAGGSLRLSCAASGRTYFDYTMGWYRQAPGKERELVAAINRSGVSTYYADSVKGRFTISRDNAKNTVYLQMNSLKPEDTAVYYCNADRGPPKLEYDPVIMDYWGQGTQVTVSS,low polyreactivity
18,QVQLVESGGGLVQAGGSLRLSCSASGRTFSVYAMGSYRQAPGKERELVAGITSGGSTNYADSVKGRFTISRDNAKNTVYLQMNSLKPEDTAVYYCDAENVYAGFGFVSIVDYWVQGTQVTVSS,low polyreactivity
19,QVQLVESGGGLVQAGGSLRISCAASGLTSVTYAMGWYRQAPGKERELVAAITSRAGSTYYADSVKGRFTISRDNAKNTVYLQMNSLKPEDTAVYYCAKDIIRKVYAGYVGRYDYWGQGTQVTVSS,low polyreactivity
20,QVQLVESGGGLVQAGGSLRLSCAASGSTFFVYTMGWYRQAPGKERELVAAISGSGGSTSYADSVKGRFTISRDNAKNTVYLQMNSLKPEDTAVYYCAARRHVYLRGSTFEFNYWGQGTQVTVSS,high polyreactivity
21,QVQLVESGGGLVQAGGSLRLSCAASGSTFTHYALGWYRQAPGKEMELVAAITRRGGSTYYADSVKGRFTISRDYAKNTVYLQMNRLKPEDTAVYYCAARSRYDQEYDYWGQATQVTVSS,high polyreactivity
22,QVQLVESGGGLVQAGGSLRLSCAASGSIFYGYAMGWYRQAPGKEREFVAGIDSSGGSTSYADSVKGRFTISRDNAKNTVYLQMNSLKPEDTAVYYCAKQIVSGRRVDRNDYWGQGTQVTVSS,low polyreactivity

row,Sequence,polyreactivity (PSR sort gate)
1,QVQLVESGGGLVQAGGSLRLSCASSGLIFSIYAMGWYRQAPGKERELVAAIRWSGGSTYYADSVKGRFTISRDNAKNTVYLQMNSLKPEDTAVYYCNADITVYVRIYQYNYCGQGTQVTVSS,low polyreactivity
2,QVQLVESGGGLVQAGGSLRVSCAASGSTFVGNAMGWYRQEPGKERELVADITSGGSTNYADSVKGRFTISRDNAKNTVYLQMKSLKPEDTAVYYFAAVYLCSQRREFWGQGTQVTVSS,low polyreactivity
3,QVQLVESGGGLVQAGGSLRLSCAASGRIFVYYDMGWYRQAPGKEREVVAAISSTGGSTNYADSVKGRFTISRDNAKNTVYLQMNSLKPEDTAVYYCNAALWRIAYPYGYYQYDYWGQGTQVTVSS,low polyreactivity
4,QVQLVESGGGLVQAGGSLRLSCAASGSIFGRYGAMGWYRQAPGKERELVAAIRTSGVSTYYADSVKGRFTISRDNAKNTVYLQMNSLKPEDTAVYYCAKGYNSYNLGKYGYWGQGTQVTVSS,low polyreactivity
5,QVQIVESGGGLVQAGGSLRISCAASGRTYRFYAMGWYRQAPGKERELVAAISSGGSTYYADSVKGRFTISRDNAKNTVYLQMNSLNPEDTAVYYCAAQRWRGASLYDYWGQGTQVTVSS,high polyreactivity
6,QVQLVESGGGLVQAGGSLRLSCGASGSSFADNAMGRYRPATGTERELVDTNTGSGGSTYYADSVKGRFTISRDNAKNTVYLLMNSLKPEDTAVYYCAAEVVAWSLYEDFKTYDYWGQGTQVTVSS,low polyreactivity
7,QVQLVESGGGLVQAGGSLSLSCAASGSIFNPYGKGWYRQAPGKERELVAAITSSGGDTYYADSVKGRFTISRDNAKNTVYLQMNSLKPEDTAVYYCAATGLPGYYAYDYWGHGTQVTVSS,low polyreactivity
8,QVQLVESGGGLVQAGGSLRLSCAASGSIFDRYAMGWYRQAPGKERELVAAISTGGSTNYADSVKGRFTISRDNAKNTVYLQMNSLKPEDTAVYYCAAERYWVFHGTISYKYDYWGQGTQVTVSS,low polyreactivity
9,QVQLVESGGGLVQAGGSLRLSCAASGSIFSPNDMGWYRQAPGKERELVAAITSAGSTYYADSVKGRFTISRDNAKNTVYLQMNSLKPDDTAVYYCAATYISVTDYAYFPLWYGYWGQGTQVTVSS,low polyreactivity
10,QVQLVESGGGLVQAGGSLRLSCAASGRTFYRYAMGLYRQAPRKERELVASITRGTSTNYADSVKGRFTISRDNAKNTVYLQMNSLKPEDTAVYYCNRRIFGGQRMYYWGQGTQVTVSS,high polyreactivity
11,QVQLVESGGGLVQAGGSLRLSCAASGSTFFFNAMGWYRQAPGKERELVASITDTSGRTYYADSVKGRFTISRDNAKNTVYLHMNSLKPEDTAVYYCDKDFDQGGREMDYWGQGTQVTVSS,low polyreactivity
12,QVQLVESGGGLVQAGGSLRLSCAASGRTFYQYDMGWYRQAPGKERELVAAIDWSGGSTYYADSVKGRFTISRDNAKNTVYLQMNSLKPEDTAVYYCNKDSHISTAYDYWGQGTQVTVSS,low polyreactivity
13,QVQQRESGGGLVQAGGSLSLSCAASGTIFYSRYMGWYRQAPGKEREFVASISSGGNTNYADSVKGRCTISRDNAKNTVYLQMNSLKPEVTAVYYCAVNTGLITTFPFWGQATQVTVSS,high polyreactivity
14,QVQLVESGGGLVQAGGSLRISCAASGITFRWYAMGWYRQAPGKERELVAGINSSGGSTNYADSVKGRFTISRDNAKNTVYLQMNSLKPADTAVYYCNADLRSEYDYWGQGTQETVSS,low polyreactivity
15,QVQLVESGGGLVQAGGSLRLSCAASGSIFTRNAMGWYRQAPGKERELVARISARSGRTYYADSVKGRFTISRDNAKNTVYLQMNSLKPEDTAVYYFAVRYRGKYPFRYNYWGQGTQVTVSS,high polyreactivity
16,QVQLVESGGGLVQAGGSLRLSCAASGITFDRYALGWYRPAPGKEREFVAAISWRGGSTYYADSVKGRFTISRDNAKNTVYLQMNSLKPEDTAVYYCAVGYYDHDYWYEYWGQGTQVTVSS,high polyreactivity
17,QVQLVESGGGLVQAGGSLRLSCAASGITFWYYAMGWSRQEPGKERELVAGISRSDSNTYYADSVKGRFTISRDNAKNTLYLQMNSLKPEDTAVYYCSAYYYRRRYGGKYDYWGQGTQVTVSS,high polyreactivity
18,QVQLVESGGGLVQAGGSLRLSCAASGSTFALYAMGWYRQAPGKERELVAAISRSGSSTYYADSVKGRFTMSRDNAKNTVYLQMNSLKPEDTAVYYCATTISGLTSRLYYWGQGTQVTVSS,high polyreactivity
19,QVQLVESGGGLVQAGGSLRLSCAASGSIFILYAMVWYRQAPGKERELVAAISSTGTTYYADSVKGRFTISRDNAKNTVYLQMNSLKPEDTAVYYCATDEPSSGRTPYDYWGQGTQVTVSS,low polyreactivity
20,QVQLVESGGGVVQAGGSLRLSCAASGFTFWRYAMGWSRQAPGKDRELVAVITWSGTRTYYADSVKGRFTLSRDTAKITVYVQMNSLNPDAPAVYYCAAYITDVAGRAYDYWGQGTQVTVSS,high polyreactivity
21,QVQLVESGGGLVQAGGSLRLSCAASGLILGPYAMGWYRKAPGKERELVAAITRGGGTYYADSVKGRFTISRDNAKNTVYLQMNSLKPEDTAVYDCARIYYVSIYRYDYWGQGTQVTVSS,high polyreactivity

# Source: the nanobody polyreactivity screen of Harvey et al. (2022)
